Measurements taken from patent US5942491A (priority 1996, dated 1999).
Entries after “also recorded” stand apart in the source; their conditions may differ. Where two headings read alike, the source gives them in different places. Where no end group is shown, it is not given here.

B1: BP: Porcine myelin basic protein (Lilly) (protein, UniProt P81558 1-171, looked up)
Myelin basic protein: ASQKRPSQRHGSKYLASASTMDHARHGFLPRHRDTGIDSLGRFFGADRGAPKRGSGKDGHHAARTTHYGSLPQKAQHGRPQDENPVVHFFKNIVTPRTPPPSQGKGRGLSLSRFSWGAEGQKPGFGYGGRAPDYKPAHKGLKGAQDAQGTLSKIFKLGGRDSRSGSPMARR
B2: OA: chicken ovalbumin (Sigma) (protein, UniProt P01012 2-386, looked up)
Ovalbumin: GSIGAASMEFCFDVFKELKVHHANENIFYCPIAIMSALAMVYLGAKDSTRTQINKVVRFDKLPGFGDSIEAQCGTSVNVHSSLRDILNQITKPNDVYSFSLASRLYAEERYPILPEYLQCVKELYRGGLEPINFQTAADQARELINSWVESQTNGIIRNVLQPSSVDSQTAMVLVNAIVFKGLWEKAFKDEDTQAMPFRVTEQESKPVQMMYQIGLFRVASMASEKMKILELPFASGTMSMLVLLPDEVSGLEQLESIINFEKLTEWTSSNVMEERKIKVYLPRMKMEEKYNLTSVLMAMGITDVFSSSANLSGISSAESLKISQAVHAAHAEINEAGREVVGSAEAGVDAASVSEEFRADHPFLFCIKHIATNAVLFFGRCVSP

Tests used:
[1] = tested on: adjuvant arthritis; assay type: in vivo, Lewis rats
[2] = tested on: adjuvant arthritis; design: species or system Lewis rats; conditions: rat, in vivo
[3] = tested on: adjuvant arthritis; assay: Adjuvant-induced model of arthritis, summary statements on prevention and treatment; assay type: in vivo, Lewis rats; conditions: summary statement
[4] = tested on: adjuvant arthritis; conditions: for Development of experimental allergic encephalomyelitis (EAE): arthritogenic doses of CFA (Mb) combined with MBP

| Molecule | Effect on the course of pre-existing arthritis ([1]; rat, in vivo) | Protective effect against induction of adjuvant arthritis [2] | Prevention and suppression/treatment of arthritis (summary in words) ([3]; listed as MBP) | Prevention and suppression/treatment of arthritis (summary in words) ([3]; listed as pMBP) | Remission of arthritis ([1]; rat, in vivo) | Anti-arthritic activity after storage ([1]; solvated and kept in refrigerator at 4 degrees centigrade for three months) | Development of experimental allergic encephalomyelitis (EAE) [4] | Development of experimental allergic encephalomyelitis (EAE) ([4]; listed as MBP) | A. Number of animals inoculated/number of animals with arthritis ([4]; rat, in vivo) | C. Average day of onset of arthritis ([4]; rat, in vivo) [days] | D. Average duration of symptoms ([4]; rat, in vivo) [days] | Effect of co-inoculation with FCA on arthritis (in words) ([4]; rat, in vivo) | Effect of co-inoculation with FCA on arthritis (in words) ([4]; rat, in vivo, listed as MBP) |
| --- | --- | --- | --- | --- | --- | --- | --- | --- | --- | --- | --- | --- | --- |
| FSWGAEGQR [EAE peptide, EAE peptide derived from MBP, reference compound] | somewhat effective |  |  |  |  |  |  |  |  |  |  |  |  |
| B1 | marked effect on the course of the arthritis, reducing the clinical severity of the disease | minimal protective effects that were of limited clinical value | prevent and suppress arthritis | appear to protect against and to effectively treat pre-existing arthritis clinical symptoms | complete remission in all three animals tested | no activity | developed experimental allergic encephalomyelitis (EAE) | All six animals developed EAE | 0/6 | 0 | 0 | did not develop any symptoms of arthritis over a period of 2 months | none had any clinical signs or arthritis |
| B2 |  | very significant protective effects against induction of adjuvant arthritis; also recorded: protective |  |  |  |  |  |  |  |  |  |  |  |
